Biological target: σ70, native, untagged (pLN12) (UniProt P00579)
Sequence (P00579 whole entry): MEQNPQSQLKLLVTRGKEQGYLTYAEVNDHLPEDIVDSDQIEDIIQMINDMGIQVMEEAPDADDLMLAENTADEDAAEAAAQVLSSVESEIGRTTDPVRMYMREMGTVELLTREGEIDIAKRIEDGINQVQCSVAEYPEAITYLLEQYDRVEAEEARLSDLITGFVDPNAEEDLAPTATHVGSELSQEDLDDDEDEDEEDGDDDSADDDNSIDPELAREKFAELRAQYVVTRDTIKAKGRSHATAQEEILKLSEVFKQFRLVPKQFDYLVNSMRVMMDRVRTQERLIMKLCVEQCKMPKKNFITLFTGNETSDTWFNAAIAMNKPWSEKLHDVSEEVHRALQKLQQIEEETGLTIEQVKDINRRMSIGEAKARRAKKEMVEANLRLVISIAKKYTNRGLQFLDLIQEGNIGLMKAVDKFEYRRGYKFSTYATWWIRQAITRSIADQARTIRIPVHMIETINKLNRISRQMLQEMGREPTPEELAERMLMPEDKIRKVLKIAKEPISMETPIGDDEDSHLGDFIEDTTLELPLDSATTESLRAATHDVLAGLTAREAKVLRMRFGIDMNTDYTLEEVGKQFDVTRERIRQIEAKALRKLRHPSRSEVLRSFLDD

With “β′ 1-1407 wild type with C-terminal His6 (pTA577)” the “Growth at 42° C. with plasmid β′ as sole source of β′ (strain RL602)” value was “+”.

— US20030104423
